Target: 新冠假病毒Delta突变株的S蛋白 (B.1.617.2(Delta)) (SARS-CoV-2, UniProt P0DTC2 14-1273)
Test: cell-based or functional assay

B1: 抗SARS-CoV-2(COVID-19)S蛋白RBD单克隆抗体B15-5-B3 (antibody, V domains shown)
VH: EVKFEESGGGLVQPGGSMKLSCAASGFTFSDAWMDWVRQSPEKGLEWVAEIRNKANNHATYYAESVKGRFTISRDDSKSSVYLQMNSLRAEDTGIYYCTPYDYAYPWFWGQGTLVTVSA
VL: EIVLTQSPTTMAASPGEKITITCSASSSISSHYLHWYQQKPGFSPKLLIYRSYSLASGFPGRFSGSGSGTSFSLSIGTMEAEDVATYYCQQGSSRITPFGGGTKLEIK
- 假病毒中和效应 EC50 (luciferase, HEK293-ACE2 cells): 0.27 µg/mL
